The values that follow come from doi:10.1101/2024.10.10.617623, “Deep mutational scanning identifies variants of Cas1 and Cas2 that increase spacer acquisition in type II-A CRISPR-Cas systems” (bioRxiv, 2024).

Where a chain is given by its changes, count along the chain named.

Assay [1] concerns the target T1, Streptococcus pyogenes type II-A Cas1 (wild type) (Streptococcus pyogenes, UniProt Q99ZW1 1-289).
T1 construct: Cas1 of the Streptococcus pyogenes (SF370) type II-A CRISPR-Cas system; I surmise that one is the wild type; also called wt; source: E. coli Rosetta 2(DE3) BL21, purified (Ni-NTA, SUMO protease, HiTrap Heparin, Superdex 200)
T1 sequence (looked up): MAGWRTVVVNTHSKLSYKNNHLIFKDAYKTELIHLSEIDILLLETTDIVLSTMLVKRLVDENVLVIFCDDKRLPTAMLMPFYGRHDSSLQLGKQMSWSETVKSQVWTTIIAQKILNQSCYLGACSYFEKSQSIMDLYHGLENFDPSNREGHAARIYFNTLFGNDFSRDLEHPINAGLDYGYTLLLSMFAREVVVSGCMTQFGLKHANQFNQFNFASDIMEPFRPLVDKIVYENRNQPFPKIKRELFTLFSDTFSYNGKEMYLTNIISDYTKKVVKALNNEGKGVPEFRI
The assay can be described thus: SEC; analytical SEC on Superdex 200 Increase 10/300 GL in SEC buffer (20 mM HEPES pH 7.5, 500 mM NaCl, 5% v/v glycerol, 5 mM DTT) at 4 °C; Cas1 variant 15.0 uM (2 equiv.) mixed with Cas2 7.5 uM, incubated 1 h at 4 °C before injection; fractions on SDS-PAGE, Coomassie. The note with it: both partners purified.

Assay [2] concerns the target T2, Streptococcus pyogenes type II-A Cas1 R5A (Streptococcus pyogenes, UniProt Q99ZW1 1-289, R5A).
T2 construct: Cas1 of the Streptococcus pyogenes (SF370) type II-A CRISPR-Cas system with R5A; source: E. coli Rosetta 2(DE3) BL21, purified (Ni-NTA, SUMO protease, HiTrap Heparin, Superdex 200)
T2 sequence (looked up): T1 sequence (looked up) with R5A
The description is as above. The note with it: both partners purified.

B1: Streptococcus pyogenes type II-A Cas2 (natural protein, UniProt Q99ZW0 1-113, looked up)
chain: MSYRYMRMILMFDMPTDTAEERKAYRKFRKFLLSEGFIMHQFSIYSKLLLNNTANNAMIGRLREHNPNKGNITLLTVTEKQFARMIYLHGERNNCIANSDERLVFLGEAFDES
notes: Cas2 of the Streptococcus pyogenes (SF370) type II-A CRISPR-Cas system; source: E. coli Rosetta 2(DE3) BL21, purified (Ni-NTA, SUMO protease, HiTrap Heparin, Superdex 200)
In the case of B1, the binding result in assay [1] and in assay [2] was “binds” in each case.
